{
  "source": "patent US20130005646A1",
  "about": "(Novo Nordisk, published 2013)",
  "binders": {"B1": {"name": "N-alpha-[(S)-4-Carboxy-4-(19-carboxynonadecanoylamino)butyryl]-[Gly1,Glu14,His17,Gln21,Gln35,Pro37]-pramlintide (peptide)", "peptide": "{C20 diacid-γGlu}-GCNTATCATQRLAEFLHHSSQNFGPILPPTNVGSQTP-NH2", "modifications": "disulfide 2-7", "SMILES": "CC[C@H](C)[C@H](NC(=O)[C@@H]1CCCN1C(=O)CNC(=O)[C@H](Cc1ccccc1)NC(=O)[C@H](CC(N)=O)NC(=O)[C@H](CCC(N)=O)NC(=O)[C@H](CO)NC(=O)[C@H](CO)NC(=O)[C@H](Cc1c[nH]cn1)NC(=O)[C@H](Cc1c[nH]cn1)NC(=O)[C@H](CC(C)C)NC(=O)[C@H](Cc1ccccc1)NC(=O)[C@H](CCC(=O)O)NC(=O)[C@H](C)NC(=O)[C@H](CC(C)C)NC(=O)[C@H](CCCNC(=N)N)NC(=O)[C@H](CCC(N)=O)NC(=O)[C@@H](NC(=O)[C@H](C)NC(=O)[C@@H]1CSSC[C@H](NC(=O)CNC(=O)CC[C@H](NC(=O)CCCCCCCCCCCCCCCCCCC(=O)O)C(=O)O)C(=O)N[C@@H](CC(N)=O)C(=O)N[C@@H]([C@@H](C)O)C(=O)N[C@@H](C)C(=O)N[C@@H]([C@@H](C)O)C(=O)N1)[C@@H](C)O)C(=O)N[C@@H](CC(C)C)C(=O)N1CCC[C@H]1C(=O)N1CCC[C@H]1C(=O)N[C@H](C(=O)N[C@@H](CC(N)=O)C(=O)N[C@H](C(=O)NCC(=O)N[C@@H](CO)C(=O)N[C@@H](CCC(N)=O)C(=O)N[C@H](C(=O)N1CCC[C@H]1C(N)=O)[C@@H](C)O)C(C)C)[C@@H](C)O"}, "B2": {"name": "N-alpha-[(S)-4-Carboxy-4-(19-carboxynonadecanoylamino)butyryl]-[Glu1,Glu14,Gln21,Gln35,Pro37]-pramlintide (peptide)", "peptide": "{C20 diacid-γGlu}-ECNTATCATQRLAEFLVHSSQNFGPILPPTNVGSQTP-NH2", "modifications": "disulfide 2-7", "SMILES": "CC[C@H](C)[C@H](NC(=O)[C@@H]1CCCN1C(=O)CNC(=O)[C@H](Cc1ccccc1)NC(=O)[C@H](CC(N)=O)NC(=O)[C@H](CCC(N)=O)NC(=O)[C@H](CO)NC(=O)[C@H](CO)NC(=O)[C@H](Cc1c[nH]cn1)NC(=O)[C@@H](NC(=O)[C@H](CC(C)C)NC(=O)[C@H](Cc1ccccc1)NC(=O)[C@H](CCC(=O)O)NC(=O)[C@H](C)NC(=O)[C@H](CC(C)C)NC(=O)[C@H](CCCNC(=N)N)NC(=O)[C@H](CCC(N)=O)NC(=O)[C@@H](NC(=O)[C@H](C)NC(=O)[C@@H]1CSSC[C@H](NC(=O)[C@H](CCC(=O)O)NC(=O)CC[C@H](NC(=O)CCCCCCCCCCCCCCCCCCC(=O)O)C(=O)O)C(=O)N[C@@H](CC(N)=O)C(=O)N[C@@H]([C@@H](C)O)C(=O)N[C@@H](C)C(=O)N[C@@H]([C@@H](C)O)C(=O)N1)[C@@H](C)O)C(C)C)C(=O)N[C@@H](CC(C)C)C(=O)N1CCC[C@H]1C(=O)N1CCC[C@H]1C(=O)N[C@H](C(=O)N[C@@H](CC(N)=O)C(=O)N[C@H](C(=O)NCC(=O)N[C@@H](CO)C(=O)N[C@@H](CCC(N)=O)C(=O)N[C@H](C(=O)N1CCC[C@H]1C(N)=O)[C@@H](C)O)C(C)C)[C@@H](C)O"}, "B3": {"name": "N-alpha-[(S)-4-Carboxy-4-(19-carboxynonadecanoylamino)butyryl]-[Glu14,Gln21,Gln35,Pro37]-pramlintide (peptide)", "peptide": "{C20 diacid-γGlu}-KCNTATCATQRLAEFLVHSSQNFGPILPPTNVGSQTP-NH2", "modifications": "disulfide 2-7", "SMILES": "CC[C@H](C)[C@H](NC(=O)[C@@H]1CCCN1C(=O)CNC(=O)[C@H](Cc1ccccc1)NC(=O)[C@H](CC(N)=O)NC(=O)[C@H](CCC(N)=O)NC(=O)[C@H](CO)NC(=O)[C@H](CO)NC(=O)[C@H](Cc1c[nH]cn1)NC(=O)[C@@H](NC(=O)[C@H](CC(C)C)NC(=O)[C@H](Cc1ccccc1)NC(=O)[C@H](CCC(=O)O)NC(=O)[C@H](C)NC(=O)[C@H](CC(C)C)NC(=O)[C@H](CCCNC(=N)N)NC(=O)[C@H](CCC(N)=O)NC(=O)[C@@H](NC(=O)[C@H](C)NC(=O)[C@@H]1CSSC[C@H](NC(=O)[C@H](CCCCN)NC(=O)CC[C@H](NC(=O)CCCCCCCCCCCCCCCCCCC(=O)O)C(=O)O)C(=O)N[C@@H](CC(N)=O)C(=O)N[C@@H]([C@@H](C)O)C(=O)N[C@@H](C)C(=O)N[C@@H]([C@@H](C)O)C(=O)N1)[C@@H](C)O)C(C)C)C(=O)N[C@@H](CC(C)C)C(=O)N1CCC[C@H]1C(=O)N1CCC[C@H]1C(=O)N[C@H](C(=O)N[C@@H](CC(N)=O)C(=O)N[C@H](C(=O)NCC(=O)N[C@@H](CO)C(=O)N[C@@H](CCC(N)=O)C(=O)N[C@H](C(=O)N1CCC[C@H]1C(N)=O)[C@@H](C)O)C(C)C)[C@@H](C)O"}, "B4": {"name": "N-alpha-[(S)-4-Carboxy-4-(19-carboxynonadecanoylamino)butyryl]-[His1,Glu14,Arg18,Pro37]-pramlintide (peptide)", "peptide": "X1-HCNTATCATQRLAEFLVRSSNNFGPILPPTNVGSNTP-NH2", "modifications": "disulfide 2-7", "SMILES": "CC[C@H](C)[C@H](NC(=O)[C@@H]1CCCN1C(=O)CNC(=O)[C@H](Cc1ccccc1)NC(=O)[C@H](CC(N)=O)NC(=O)[C@H](CC(N)=O)NC(=O)[C@H](CO)NC(=O)[C@H](CO)NC(=O)[C@H](CCCNC(=N)N)NC(=O)[C@@H](NC(=O)[C@H](CC(C)C)NC(=O)[C@H](Cc1ccccc1)NC(=O)[C@H](CCC(=O)O)NC(=O)[C@H](C)NC(=O)[C@H](CC(C)C)NC(=O)[C@H](CCCNC(=N)N)NC(=O)[C@H](CCC(N)=O)NC(=O)[C@@H](NC(=O)[C@H](C)NC(=O)[C@@H]1CSSC[C@H](NC(=O)[C@H](Cc2c[nH]cn2)NC(=O)CC[C@H](NC(=O)CCCCCCCCCCCCCCCCCCC(=O)O)C(=O)O)C(=O)N[C@@H](CC(N)=O)C(=O)N[C@@H]([C@@H](C)O)C(=O)N[C@@H](C)C(=O)N[C@@H]([C@@H](C)O)C(=O)N1)[C@@H](C)O)C(C)C)C(=O)N[C@@H](CC(C)C)C(=O)N1CCC[C@H]1C(=O)N1CCC[C@H]1C(=O)N[C@H](C(=O)N[C@@H](CC(N)=O)C(=O)N[C@H](C(=O)NCC(=O)N[C@@H](CO)C(=O)N[C@@H](CC(N)=O)C(=O)N[C@H](C(=O)N1CCC[C@H]1C(N)=O)[C@@H](C)O)C(C)C)[C@@H](C)O"}, "B5": {"name": "N-alpha-[(S)-4-Carboxy-4-(19-carboxynonadecanoylamino)butyryl]-[Lys11,Glu14,His17,Pro37]-pramlintide (peptide)", "peptide": "{C20 diacid-γGlu}-KCNTATCATQKLAEFLHHSSNNFGPILPPTNVGSNTP-NH2", "modifications": "disulfide 2-7", "SMILES": "CC[C@H](C)[C@H](NC(=O)[C@@H]1CCCN1C(=O)CNC(=O)[C@H](Cc1ccccc1)NC(=O)[C@H](CC(N)=O)NC(=O)[C@H](CC(N)=O)NC(=O)[C@H](CO)NC(=O)[C@H](CO)NC(=O)[C@H](Cc1c[nH]cn1)NC(=O)[C@H](Cc1c[nH]cn1)NC(=O)[C@H](CC(C)C)NC(=O)[C@H](Cc1ccccc1)NC(=O)[C@H](CCC(=O)O)NC(=O)[C@H](C)NC(=O)[C@H](CC(C)C)NC(=O)[C@H](CCCCN)NC(=O)[C@H](CCC(N)=O)NC(=O)[C@@H](NC(=O)[C@H](C)NC(=O)[C@@H]1CSSC[C@H](NC(=O)[C@H](CCCCN)NC(=O)CC[C@H](NC(=O)CCCCCCCCCCCCCCCCCCC(=O)O)C(=O)O)C(=O)N[C@@H](CC(N)=O)C(=O)N[C@@H]([C@@H](C)O)C(=O)N[C@@H](C)C(=O)N[C@@H]([C@@H](C)O)C(=O)N1)[C@@H](C)O)C(=O)N[C@@H](CC(C)C)C(=O)N1CCC[C@H]1C(=O)N1CCC[C@H]1C(=O)N[C@H](C(=O)N[C@@H](CC(N)=O)C(=O)N[C@H](C(=O)NCC(=O)N[C@@H](CO)C(=O)N[C@@H](CC(N)=O)C(=O)N[C@H](C(=O)N1CCC[C@H]1C(N)=O)[C@@H](C)O)C(C)C)[C@@H](C)O"}},
  "key": {"[1]": {"target": "T1, human amylin 3(a) receptor (human calcitonin receptor + RAMP-3) (human, UniProt P30988 25-474; O60896 24-148)", "T1 sequence (looked up) 1": "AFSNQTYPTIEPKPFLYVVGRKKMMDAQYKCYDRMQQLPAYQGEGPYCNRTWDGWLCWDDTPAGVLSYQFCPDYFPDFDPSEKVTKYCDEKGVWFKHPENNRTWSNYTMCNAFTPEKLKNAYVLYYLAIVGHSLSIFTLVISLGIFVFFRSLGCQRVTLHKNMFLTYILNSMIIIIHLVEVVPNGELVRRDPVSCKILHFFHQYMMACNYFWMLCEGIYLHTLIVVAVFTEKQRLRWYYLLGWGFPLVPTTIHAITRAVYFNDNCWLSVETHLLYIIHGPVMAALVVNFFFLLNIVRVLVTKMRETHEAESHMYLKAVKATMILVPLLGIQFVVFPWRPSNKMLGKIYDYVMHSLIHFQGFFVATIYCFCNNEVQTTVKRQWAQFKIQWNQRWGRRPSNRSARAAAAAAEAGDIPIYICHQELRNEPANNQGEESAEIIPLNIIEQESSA", "T1 sequence (looked up) 2": "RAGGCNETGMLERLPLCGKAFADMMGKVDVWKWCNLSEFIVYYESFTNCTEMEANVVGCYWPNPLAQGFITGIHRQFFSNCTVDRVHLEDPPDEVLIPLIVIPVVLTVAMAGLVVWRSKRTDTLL", "assay": "cell-based or functional assay"}, "[2]": {"target": "T2, human calcitonin (a) receptor (human, UniProt P30988 25-474)", "T2 sequence (looked up)": "T1 sequence (looked up) 1", "assay": "cell-based or functional assay"}},
  "note": "Starred links: 1 amine or outer side, 2 acyl side, 3 side chain; linkers in the order of their positions; H or OH if unused. Positions of bridges follow the written chain, without caps; N, C: chain ends. Groups on a side chain read outwards from the residue. No end group written: not given here. *: point of attachment. X1 = (S)‑4‑Carboxy‑4‑(19-carboxynonadecanoylamino)butyryl, O=C(O)CCCCCCCCCCCCCCCCCCC(=O)N[C@@H](CCC(=O)*)C(=O)O; C20 diacid = O=C(O)CCCCCCCCCCCCCCCCCCC(=O)*; γGlu = O=C(O)[C@H](CCC(=O)[*:2])N[*:1]; AEEA = NCCOCCOCC(=O)O",
  "data": [
    {"binder": "B1", "values": [
      {"measurement": "Amylin receptor human EC50", "setting": "[1]", "value": 120, "unit": "pM"},
      {"measurement": "CTa receptor human EC50", "setting": "[2]", "value": 72, "unit": "pM"}
    ]},
    {"binder": "B2", "values": [
      {"measurement": "Amylin receptor human EC50", "setting": "[1]", "value": 1510, "unit": "pM"},
      {"measurement": "CTa receptor human EC50", "setting": "[2]", "value": 496, "unit": "pM"}
    ]},
    {"binder": "B3", "values": [
      {"measurement": "Amylin receptor human EC50", "setting": "[1]", "value": 108, "unit": "pM"},
      {"measurement": "CTa receptor human EC50", "setting": "[2]", "value": 58.5, "unit": "pM"}
    ]},
    {"binder": "KCNTATCATQRLANFLHHSSNNFGK([AEEA-AEEA-γGlu-19‑carboxyheptadecanoyl])ILSSTNVGSHTY-NH2 (disulfide 2-7)", "values": [
      {"measurement": "Amylin receptor human EC50", "setting": "[1]", "value": 198, "unit": "pM"},
      {"measurement": "CTa receptor human EC50", "setting": "[2]", "value": 114, "unit": "pM"}
    ]},
    {"binder": "KCNTATCATQRLANFLHHSSK([AEEA-AEEA-γGlu-19‑carboxyheptadecanoyl])NFGPILSPTNVGSHTY-NH2 (disulfide 2-7)", "values": [
      {"measurement": "Amylin receptor human EC50", "setting": "[1]", "value": 482, "unit": "pM"},
      {"measurement": "CTa receptor human EC50", "setting": "[2]", "value": 889, "unit": "pM"}
    ]},
    {"binder": "KCNTATCATQRLAEFLHHSSNNFGK([AEEA-AEEA-γGlu-19‑carboxyheptadecanoyl])ILSSTNVGSHTY-NH2 (disulfide 2-7)", "values": [
      {"measurement": "Amylin receptor human EC50", "setting": "[1]", "value": 301, "unit": "pM"},
      {"measurement": "CTa receptor human EC50", "setting": "[2]", "value": 110, "unit": "pM"}
    ]},
    {"binder": "B4", "values": [
      {"measurement": "Amylin receptor human EC50", "setting": "[1]", "value": 41.5, "unit": "pM"},
      {"measurement": "CTa receptor human EC50", "setting": "[2]", "value": 22, "unit": "pM"}
    ]},
    {"binder": "KCNTATCATQRLAEFLHHSSK([AEEA-AEEA-γGlu-19‑carboxyheptadecanoyl])NFGPILSPTNVGSHTY-NH2 (disulfide 2-7)", "values": [
      {"measurement": "Amylin receptor human EC50", "setting": "[1]", "value": 625, "unit": "pM"},
      {"measurement": "CTa receptor human EC50", "setting": "[2]", "value": 347, "unit": "pM"}
    ]},
    {"binder": "B5", "values": [
      {"measurement": "Amylin receptor human EC50", "setting": "[1]", "value": 80.5, "unit": "pM"},
      {"measurement": "CTa receptor human EC50", "setting": "[2]", "value": 83, "unit": "pM"}
    ]}
  ]
}
